{
  "source": "patent US20110020437A1",
  "about": "(APIM THERAPEUTICS, published 2011)",
  "biological_target": "T1, proliferating cell nuclear antigen (PCNA) (UniProt P12004 1-261)",
  "T1 construct": "Used both for endogenous PCNA of HeLa cell extracts (co-IP, cross-linking) and for the untagged 'PCNA' used as probe in the dot blot; also called endogenous PCNA",
  "T1 sequence (P12004 whole entry)": "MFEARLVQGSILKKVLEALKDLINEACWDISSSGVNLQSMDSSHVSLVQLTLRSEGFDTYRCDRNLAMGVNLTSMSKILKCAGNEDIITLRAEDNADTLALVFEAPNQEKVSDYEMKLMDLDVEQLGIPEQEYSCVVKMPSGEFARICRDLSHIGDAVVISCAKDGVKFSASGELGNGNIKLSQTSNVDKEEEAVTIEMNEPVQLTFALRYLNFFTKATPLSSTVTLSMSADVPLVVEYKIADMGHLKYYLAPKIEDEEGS",
  "assay": "co-IP with anti-GFP antibodies from stably expressing cells, anti-PCNA western blot",
  "experimental": "An in-house affinity purified rabbit polyclonal antibody raised against GFP protein, which also recognises EYFP and ECFP proteins, was covalently linked to protein-A paramagnetic beads (Dynal®) according to procedure from New England Biolabs® Inc (from now on called α-GFP beads). Each fraction was incubated with α-GFP beads (10 μl) during constant rotation at 4° C. over night (IP). After IP, the beads were washed 4 times with 200 μl 10 mM Tris-HCl, 50 mM KCl (pH 7.5), with 5 min incubation on ice in between. The beads were then resuspended in NuPAGE ® (Invitrogen) loading buffer and 1 mM DTT, heated, and separated on 10% or 4-12% Bis-Tris-HCl (NuPAGE®) gels and transferred to PVDF membranes (Imrnobilon®, Millipore). The membranes were blocked for 1 h in 5% low fat dry milk in PBST (PBS with 0.1% Tween® 20). The primary antibodies, α-PCNA (PC10, Santa Cruz biotechnology Inc.) and α-GFP were diluted in 1% dry milk in PBST and incubated for 1 h, followed by 1 h incubation with secondary antibodies, Polyclonal Rabbit Anti-mouse IgG/HRP and Polyclonal Swine Anti-rabbit IgG/HRP, respectively (DakoCytomation, Denmark). The membranes were treated with chemiluminescence reagent (SuperSignal® West Femto Maximum, PIERCE), and the proteins visualised in Kodak Image Station 2000R. […]",
  "data": [
    {"binder": "hABH211-261-EYFP (other, human, UniProt Q6NS38 11-261, looked up, not shown: C-terminal EYFP tag (pEYFP-N1)) GGLLRKQEEQEPTGEEPAVLGGDKESTRKRPRREAPGNGGHSAGPSWRHIRAEGLDCSYTVLFGKAEADEIFQELEKEVEYFTGALARVQVFGKWHSVPRKQATYGDAGLTYTFSGLTLSPKPWIPVLERIRDHVSGVTGQTFNFVLINRYKDGCDHIGEHRDDERELAPGSPIASVSFGACRDFVFRHKDSRGKSPSRRVAVVRLPLAHGSLLMMNHPTNTHWYHSLPVRKKVLAPRVNLTFRKILLTKK", "values": [
      {"measurement": "binding result", "value": "no binding"}
    ]}
  ]
}
